Drawing on paper PMC3108429, this text covers microtubule-bound beads per field (beads per field) and mean attachment lifetime for 4 substances.

Assay [1] concerns the target taxol-stabilized microtubules. The assay is described as follows: bead binding to microtubules counted by DIC microscopy.
The target in assay [2] is dynamic microtubules grown from GMPCPP-stabilized microtubule seeds (bovine). The assay is described as follows: constant-force laser trap bead motility assay.

In assay [1], “Dsn1-HIS-FLAG kinetochore particles from the dad1-1 mutant strain (from UniProt P40568 1-576; Q12248 1-94) (complex)” registered a microtubule-bound beads per field (beads per field) of 18.

In turn, “Dsn1-HIS-FLAG kinetochore particles from the ndc80-1 mutant strain (from UniProt P40568 1-576; P40460 1-691) (complex)” gave a microtubule-bound beads per field (beads per field) in assay [1] of 2.

With “Dsn1-HIS-FLAG kinetochore particles from the spc105-15 mutant strain (from UniProt P40568 1-576; P53148 1-917) (complex)”, the microtubule-bound beads per field (beads per field) in assay [1] was 4.

As to “Dsn1-HIS-FLAG kinetochore particles from wild-type cells (from UniProt P40568 1-576) (complex)”, in assay [2], the mean attachment lifetime at 1 pN tension came out at 21 min and the mean attachment lifetime at 5 pN tension was 50 min. Moreover, in assay [1], the microtubule-bound beads per field (beads per field) came out at 22.
